From patent publication US8507431B2, “Methods for accelerating wound healing by administration of a preadipocyte modulator or an adipocyte modulator” (HealOr Ltd., priority 2003, dated 2013)

B1: adiponectin (protein, UniProt Q15848 19-244, looked up)
Adiponectin: ETTTQGPGVLLPLPKGACTGWMAGIPGHPGHNGAPGRDGRDGTPGEKGEKGDPGLIGPKGDIGETGVPGAEGPRGFPGIQGRKGEPGEGAYVYRSAFSVGLETYVTIPNMPIRFTKIFYNQQNHYDGSTGKFHCNIPGLYYFAYHITVYMKDVKVSLFKKDKAMLFTYDQYQENNVDQASGSVLLHLEVGDQVWLQVYGEGERNGLYADNDNDSTFTGFLLYHDTN
notes: adipokine
B2: IL-4: adipokine hIL-4 (protein, UniProt P05112 25-153, looked up)
Interleukin-4: HKCDITLQEIIKTLNSLTEQKTLCTELTVTDIFAASKNTTEKETFCRAATVLRQFYSHHEKDTRCLGATAQQFHRHKQLIRFLKRLDRNLWGLAGLNSCPVKEANQSTLENFLERLKTIMREKYSKCSS
B3: visfatin (protein, UniProt P43490 1-491, looked up)
Nicotinamide …: MNPAAEAEFNILLATDSYKVTHYKQYPPNTSKVYSYFECREKKTENSKLRKVKYEETVFYGLQYILNKYLKGKVVTKEKIQEAKDVYKEHFQDDVFNEKGWNYILEKYDGHLPIEIKAVPEGFVIPRGNVLFTVENTDPECYWLTNWIETILVQSWYPITVATNSREQKKILAKYLLETSGNLDGLEYKLHDFGYRGVSSQETAGIGASAHLVNFKGTDTVAGLALIKKYYGTKDPVPGYSVPAAEHSTITAWGKDHEKDAFEHIVTQFSSVPVSVVSDSYDIYNACEKIWGEDLRHLIVSRSTQAPLIIRPDSGNPLDTVLKVLEILGKKFPVTENSKGYKLLPPYLRVIQGDGVDINTLQEIVEGMKQKMWSIENIAFGSGGGLLQKLTRDLLNCSFKCSYVVTNGLGINVFKDPVADPNKRSKKGRLSLHRTPAGNFVTLEEGKGDLEEYGQDLLHTVFKNGKVTKSYSFDEIRKNAQLNIELEAAHH
notes: insulin-mimetic hormone secreted from visceral adipose tissue

Legend:
[1] = system: Full thickness wounds on the back of C57BL mice; assay: Wound healing assay, full thickness incision wounds in mice; type: in vivo
Experimental: […] […] Wound biopsies were sampled, processed and analyzed morphologically and/or histochemically and/or immunohistochemically for various wound healing parameters, i.e., wound contraction, adipocytes migration and differentiation, epidermal migration, and epidermal closure.
The wound area was measured and compared to untreated control wounds; and wound contraction was calculated as the percent reduction of the wound area.
Wound biopsies were fixed in 4% paraformaldehyde then dehydrated in increasing concentrations of ethanol (50-100%). The dehydrated preparations were immersed first in xylene, then paraffin and xylene 1:1 solution, then in pure melted paraffin (60° C.). The paraffin blocks were then sectioned by a microtome and the sections were mounted on Super Frost^+™ slides.
Paraffin embedded wound-section slides were incubated at 60° C. for 60 minutes and were de-parafinated by washing the slides twice with toluene (100%) for 10 minutes, then rehydrated in decreasing concentration of ethanol (100-50%) for 5 minutes each. The slides were stained with hematoxylin (ready to use solution) for 10 minutes, rinsed with water, stained with eosin (0.5% in DDW) for 5 minutes, and then washed with 70% ethanol by 2 quick immersions. Thereafter, the slides were dehydrated by washing once with 95% ethanol for 2 minutes, twice with 100% ethanol for 5 minutes, and twice with xylene (100%) for 10 minutes, then mounted with entellan (MERCK Darmstadt Germany).
Paraffin embedded wound-section slides were de-parafinated as described for H&E staining above and incubated in blocking solution (5% BSA and 0.5% Tween 20™ in PBS) for 1 hour. […]
The effect of inhibiting or enhancing the activity of PPARγ using PPARγ antogonist and agonist, respectively, on wound healing was also evaluated in vivo. […]
The effect of adipsin (complementing Factor D, which is secreted from adipocytes) on wound healing was evaluated in vivo. […] The mice were sacrificed 6 days after wounding and the wounds were then analyzed. […]

primary skin fibroblasts = assay: Fibroblasts scratch migration assay in vitro; type: cell-based; settings: 24 hrs; for fibroblasts migration to close the wound gap vs non-treated and insulin: hIL-8 5 ng/ml, hIL-1β 0.2 ng/ml, hIL-4 2 ng/ml, apelin 0.2 μg/ml, adiponectin 1 μg/ml
Experimental: Primary skin fibroblasts were isolated and plated on 5 ml non-coated dishes until confluence in low Ca^2+ medium, and an artificial crossover scratch was formed in each dish with a 200 μm tip. Cells were either non-treated (control) or treated with insulin (0.1 unit/ml), hIL-8 (5 ng/ml), hIL-1β (0.2 ng/ml), hIL-4 (2 ng/ml), apelin (0.2 μg/ml) or adiponectin (1 μg/ml); and collected after 24 hrs.
Primary keratinocytes/fibroblasts were isolated and plated on 5 ml non-coated dishes until confluence in low Ca^2+ medium, and an artificial cross-over scratch was formed in each dish with a 200 μm tip. Then, cells were either non-treated or treated with visfatin (0.1 μg/ml or 0.0.1 μg/ml) or insulin (0.1 unit/ml) for up to 48 hrs.

primary keratinocytes [2] = assay: Keratinocytes migration (wound scratch) assay in vitro; type: cell-based, murine
Experimental: (§1) Primary keratinocytes were isolated from newborn skin as described in reference 18. Keratinocytes were cultured in Eagle's Minimal Essential Medium (EMEM) containing 8% Chelex (Chelex-100, BioRad) treated fetal bovine serum. To maintain a proliferative basal cell phenotype, the final Ca^2+ concentration was adjusted to 0.05 mM. Experiments were performed five to seven days after plating.
Primary mouse keratinocytes were untreated or treated with, PPARγ antagonist GW9662 (μM) or PPARγ agonist troglitazone (μM). Wound Scratch Assay was performed 24 hours following treatment, and representative fields were photographed immediately after the wounding (Day 0) and 48 hours later (Day 2). The average of wound closure represented as percentage in comparison to the initial width of the wound scratch (% of wound closure).
The effect of inhibiting or enhancing the activity of peroxisome proliferators-activated receptor gamma (PPARγ) on keratinocytes migration was evaluated utilizing the in vitro migration assay. Thus, primary keratinocytes were isolated and plated on 5 ml non-coated dishes until confluence in low Ca^2+ medium, and an artificial crossover scratch was formed in each dish with a 200 μm tip. Cells were either non-treated (control) or treated daily with PPARγ modulators.
In order to test the effect of different adipokines on keratinocyte migration to close the wound gap, an in vitro scratch assay was used. Thus, primary keratinocytes were isolated and plated on 5 ml non-coated dishes until confluence in low Ca^2+ medium, and an artificial crossover scratch was formed in each dish with a 200 μm tip. Cells were either non-treated (control) or treated daily with insulin (0.1 unit/ml), hIL-4 (2 ng/ml), hIL-6 (0.2 ng/ml), leptin (4 μg/ml) or apelin (0.02 μg/ml or 0.2 μg/ml).
Primary keratinocytes/fibroblasts were isolated and plated on 5 ml non-coated dishes until confluence in low Ca^2+ medium, and an artificial cross-over scratch was formed in each dish with a 200 μm tip. […]

primary keratinocytes [3] = assay: Western blot analysis for PCNA expression (proliferation marker); type: cell-based, murine; settings: visfatin 0.01 μg/ml, 24 hrs post treatment
Experimental: as §1
Primary keratinocytes were isolated, plated on 100 mm tissue dishes and maintained for 5 days in medium with low Ca^+ (0.05 mM) until 80% confluence. Then, cells were either non-treated (control) or treated with insulin (0.1 unit/ml, 1 μM) or visfatin (0.01 μg/ml or 0.1 μg/ml). 24 hrs post treatment cells were lyzed and analyzed for PCNA expression by western blot analysis.

primary keratinocytes [4] = assay: Thymidine incorporation assay; type: cell-based, murine
Experimental: as §1
Primary keratinocytes were isolated, plated on 6 well tissue dishes and maintained for 5 days in medium with low Ca^2+ (0.05 mM) until 80% confluence. Then, cells were either non-treated (control) or treated with visfatin (0.1 μg/ml or 0.01 μg/ml) for 24 hrs. 6 hrs post treatment Ca^2+ mM was added to the medium, and the next day, cells were pulsed with [^3H]thymidine (1 uCi/ml) for 1 hour. After incubation, cells were washed three times with PBS and 5% trichloroacetic acid (TCA) was added into each well for 1 hour. The solution was then removed and cells were stabilized in 1M NaOH. The labeled thymidine incorporated into the cells was counted in a ^3H-window of a Tricarb liquid scintillation counter.

primary keratinocytes [5] = assay: Differentiation assay for Keratin 1 (western blot); type: cell-based, murine; settings: visfatin 0.01 or 0.1 μg/ml, 24 hrs; vs non treated and insulin treated cells
Experimental: as §1
Primary keratinocytes were isolated, plated on 100 mm tissue dishes and maintained for 5 days in medium with low Ca^2+ (0.05 mM) until 80% confluence. Then, cells were either non-treated (control) or treated with insulin (0.1 unit/ml, 1 μM) or visfatin (0.01 μg/ml or 0.1 μg/ml). 24 hrs post treatment cells were lysed and analyzed for K1 (Keartin 1) expression by western blot analysis.

primary keratinocytes [6] = assay: Differentiation assay for filaggrin (western blot); type: cell-based, murine; settings: visfatin 0.01 and 0.1 μg/ml, 24 hrs
Experimental: as §1
Primary keratinocytes were isolated, plated on 100 mm tissue dishes and maintained for 5 days in medium with low Ca^2+ (0.05 mM) until reaching 80% confluence. Then, cells were either non-treated (control) or treated with visfatin (0.01 μg/ml or 0.1 μg/ml). Terminal differentiation was induced by adding Ca^2+ to the medium 6 hrs post treatment. 24 hrs post treatment cells were lysed and analyzed for filaggrin expression by western blot analysis.

[7] = visfatin 0.01 μg/ml daily for 7 days

Row | Molecule | healing parameters (epidermal closure, dermal contraction, matrix remodeling) ([1]; adiponectin 1 μg/ml daily for 7 days, 20 mm incision, H&E and Masson Trichrome) | fibroblasts migration to close the wound gap vs non-treated and insulin (primary skin fibroblasts) | keratinocyte migration in scratch assay vs control and insulin (primary keratinocytes [2]; treated daily, 24 and 48 hrs, hIL-4 2 ng/ml, apelin 0.2 μg/ml) | adipocytes at the wound site [1, 7] | inflammation in the wound [1, 7] | migration of keratinocytes relative to controls (primary keratinocytes [2]; visfatin 0.1 μg/ml or 0.01 μg/ml, up to 48 hrs) | migration of keratinocytes (primary keratinocytes [2]; visfatin 0.1 μg/ml, 48 hrs) | fibroblast migration and proliferation (primary skin fibroblasts; visfatin 0.01 μg/ml, insulin 0.1 unit/ml as comparison) | PCNA expression levels in keratinocytes (primary keratinocytes [3]) | proliferation rate under conditions promoting cell differentiation (primary keratinocytes [4]; Ca2+ 0.12 mM addition to the medium, visfatin 0.1 or 0.01 μg/ml) | thymidine incorporation (proliferation) (primary keratinocytes [4]; visfatin 0.01 μg/ml vs 0.1 μg/ml and controls, 24 hrs) | keratinocyte differentiation (Keratin 1 expression) (primary keratinocytes [5]) | filaggrin levels (terminal differentiation) (primary keratinocytes [6])
1 | B1 | better healing parameters | promoted fibroblasts migration to completely close the wound gap |  |  |  |  |  |  |  |  |  |  | 
2 | B2 |  | did not induce any additional effect compared to controls | keratinocyte migration was highly significant |  |  |  |  |  |  |  |  |  | 
3 | B3 |  |  |  | attracts adipocytes to the wound site | reduces inflammation | does not halt or interfere with migration of keratinocytes | induced migration in keratinocytes though not significantly | promotes fibroblast migration and proliferation to the extent of insulin treatment | significantly decreased | inhibited even further | lower thymidine incorporation than the higher dose (0.1 μg/ml) and controls | promotes keratinocyte differentiation primarily terminal differentiation | marked elevation in filaggrin levels
